In FireProtDB:
Where “and” joins values, the source holds several entries; their conditions need not be identical. Identical values can stand only once.

Settings: Aspergillus oryzae (strain ATCC 42149 / RIB 40), whole UniProt chain shown
[1] = pH 1, Thermal, NMR, HCl, KCl 0.15 M, reversible: yes
[2] = pH 1.2, 25 °C, Thermal, Absorbance, glycine-HCl 30 mM, NaCl 0.10 M
[3] = pH 1.6, Thermal, CD, HCl, reversible: yes
[4] = pH 2, 15 °C, GdnHCl, CD, HCl, reversible: yes
[5] = pH 2.08, Thermal, CD, HCl, reversible: yes
[6] = pH 2.2, Thermal, Absorbance, glycine 50 mM
[7] = pH 2.2, Thermal, CD, glycine 50 mM
[8] = pH 2.2, Thermal, Fluorescence, glycine 50 mM
[9] = pH 2.5, Thermal, DSC, glycine 50 mM, NaCl 200 mM, reversible: yes
[10] = pH 4.5, Thermal, DSC, Potassium acetate 50 mM, reversible: no
[11] = pH 4.6, 25 °C, GdnHCl, Absorbance, Sodium acetate 100 mM, reversible: yes
[12] = pH 4.6, 30 °C, GdnHCl, Absorbance, Sodium acetate 100 mM, reversible: yes
[13] = pH 4.6, 35 °C, GdnHCl, Absorbance, Sodium acetate 100 mM, reversible: yes
[14] = pH 4.6, Thermal, Absorbance, Sodium acetate 50 mM
[15] = pH 5, 10 °C, GdnHCl, Fluorescence, Sodium acetate 50 mM
[16] = pH 5, Thermal, Absorbance, Sodium acetate 50 mM, reversible: Yes
[17] = pH 5, Thermal, Absorbance, Sodium acetate 0.10 M, NaCl 0.10 M, reversible: yes
[18] = pH 5, Thermal, Absorbance, sodium acetate 5-20 mM, reversible: yes
[19] = pH 5, Thermal, CD, sodium acetate 5-20 mM, reversible: yes
[20] = pH 5, Thermal, DSC, acetate 50 mM, reversible: no
[21] = pH 5, Thermal, Fluorescence, Sodium acetate 0.05 M, reversible: yes
[22] = pH 5.5, Thermal, Absorbance, MES 50 mM, reversible: yes
[23] = pH 5.5, Thermal, DSC, Potassium acetate 15 mM
[24] = pH 5.5, Thermal, DSC, Potassium acetate 50 mM, reversible: yes
[25] = pH 5.5, Thermal, DSC, acetate 30 mM
[26] = pH 5.5, Thermal, DSC, sodium acetate 10 mM, KCl 100 mM, reversible: yes
[27] = pH 6, Thermal, Absorbance, MES 0.05 M, reversible: no
[28] = pH 6, Thermal, CD, MES 10 mM, KCl 0.1 M
[29] = pH 6, Thermal, DSC, Sodium phosphate 50 mM, NaCl 200 mM, reversible: yes
[30] = pH 6.35, 25 °C, Urea, Absorbance, Glycinamide 0.1 M
[31] = pH 6.8, Thermal, DSC, phosphate 10 mM, reversible: no
[32] = pH 7, 20 °C, GdnHCl, CD, Mops 50 mM
[33] = pH 7, 20 °C, GdnHCl, Fluorescence, Mops 50 mM
[34] = pH 7, 20 °C, GdnHCl, SAXS, Mops 50 mM
[35] = pH 7, Thermal, Absorbance, phosphate 0.03 M
[36] = pH 7, Thermal, CD, MOPS 20 mM, reversible: Yes (>90%)
[37] = pH 7, Thermal, CD, Sodium cacodylate 50 mM, reversible: yes
[38] = pH 7, Thermal, DSC, MES 30 mM, reversible: yes
[39] = pH 7, Thermal, DSC, bis-Tris-HCl 50 mM, reversible: yes
[40] = pH 7, Thermal, Fluorescence, MOPS 30 mM, NaCl 0.1 M, reversible: yes
[41] = pH 7, Thermal, Fluorescence, MOPS 30 mM
[42] = pH 7.05, 25 °C, Urea, Absorbance, Glycinamide 0.1 M
[43] = pH 7.1, Thermal, Absorbance, None, reversible: Yes (>90%)
[44] = pH 7.1, Thermal, CD, None, reversible: Yes (>90%)
[45] = pH 8, 25 °C, GdnHCl, CD, Sodium phosphate 50 mM, NaCl 25 mM, reversible: Yes

B1: Guanyl-specific ribonuclease T1 wild type, P00651 (protein)
chain: MMYSKLLTLTTLLLPTALALPSLVERACDYTCGSNCYSSSDVSTAQAAGYQLHEDGETVGSNSYPHKYNNYEGFDFSVSSPYYEWPILSSGDVYSGGSPGADRVVFNENNQLAGVITHTGASGNNFVECT
- Tm [1]: 42.4 °C
- heat capacity change of unfolding [1]: 1.79 kcal/mol/K
- unfolding enthalpy (van 't Hoff) [1]: 43.2 kcal/mol
- heat capacity change of unfolding [2]: 1.47 kcal/mol/K
- unfolding enthalpy (van 't Hoff) [2]: 54.8 kcal/mol
- unfolding free energy [2]: 1 kcal/mol
- Tm [3]: 23 °C
- unfolding free energy [3]: 1.72 kcal/mol
- Tm (pH 1.9, Thermal, CD, HCl, reversible: yes): 25.8 °C
- denaturant midpoint (higher = more stable) [4]: 1.86 M
- unfolding free energy [4]: 3.68 kcal/mol
- Tm [5]: 28.7 °C
- unfolding free energy [5]: 3.16 kcal/mol
- Tm [6]: 8.3 °C
- unfolding enthalpy (van 't Hoff) [6]: 49 kcal/mol
- Tm [7]: 20.2 °C
- unfolding enthalpy (van 't Hoff) [7]: 20 kcal/mol
- Tm [8]: 9.3 °C
- unfolding enthalpy (van 't Hoff) [8]: 24 kcal/mol
- Tm [9]: 40 °C
- heat capacity change of unfolding [9]: 1.15 kcal/mol/K
- unfolding enthalpy (calorimetric) [9]: 85 kcal/mol
- Tm (pH 4.4, Thermal, NMR, Unknown): 52.3 °C
- unfolding enthalpy (van 't Hoff) (pH 4.4, Thermal, NMR, Unknown): 127 kcal/mol
- Tm [10]: 57 °C
- unfolding enthalpy (calorimetric) [10]: 106 kcal/mol
- denaturant m value [11]: 2.56 kcal/mol/M
- denaturant midpoint (higher = more stable) [11]: 2.82 M
- unfolding free energy [11]: 7.22 kcal/mol
- denaturant m value [12]: 2.65 kcal/mol/M
- denaturant midpoint (higher = more stable) [12]: 2.56 M
- unfolding free energy [12]: 6.59 kcal/mol
- denaturant m value [13]: 2.48 kcal/mol/M
- denaturant midpoint (higher = more stable) [13]: 2.25 M
- unfolding free energy [13]: 5.6 kcal/mol
- Tm [14]: 56.2 °C
- unfolding enthalpy (van 't Hoff) [14]: 107 kcal/mol
- denaturant m value [15]: 1.84 kcal/mol/M
- denaturant midpoint (higher = more stable) [15]: 5.18 M
- unfolding free energy [15]: 9.54 kcal/mol
- unfolding free energy (pH 5, 25 °C, GdnHCl, CD, Sodium acetate-Acetic acid 0.1 M, reversible: yes): 10.5 kcal/mol
- unfolding free energy (pH 5, 25 °C, GdnHCl, DSC, Sodium acetate-Acetic acid 0.1 M, reversible: yes): 11 kcal/mol
- unfolding free energy (pH 5, 40 °C, Thermal, Absorbance, Sodium acetate 50 mM, reversible: Yes): 5.06 kcal/mol
- Tm [16]: 58 °C
- unfolding enthalpy (van 't Hoff) [16]: 104 kcal/mol
- Tm (pH 5, Thermal, Absorbance, Sodium acetate 50 mM, reversible: yes): 44.4 °C
- Tm [17]: 63.3 °C
- unfolding enthalpy (van 't Hoff) [17]: 118 kcal/mol
- Tm (pH 5, Thermal, Absorbance, sodium acetate 50 mM, reversible: yes): 61.5 °C
- Tm [18]: 58.2 °C
- unfolding enthalpy (van 't Hoff) [18]: 102 kcal/mol
- Tm (pH 5, Thermal, CD, sodium acetate 50 mM): 53.7 °C
- Tm [19]: 64.3 °C
- unfolding enthalpy (van 't Hoff) [19]: 90.8 kcal/mol
- Tm [20]: 58.9 °C
- unfolding enthalpy (calorimetric) [20]: 89.6 kcal/mol
- Tm (pH 5, Thermal, Fluorescence, Sodium acetate 0.01 M, reversible: yes (>98%)): 58.8 °C
- Tm [21]: 56.7 °C
- unfolding enthalpy (van 't Hoff) [21]: 117 kcal/mol
- Tm (pH 5, Thermal, Fluorescence, Sodium formate 0.1 M, NaCl 0.25 M, reversible: yes): 59.3 °C
- Tm [22]: 58 °C
- unfolding enthalpy (van 't Hoff) [22]: 103 kcal/mol
- Tm [23]: 62 °C
- unfolding enthalpy (calorimetric) [23]: 109 kcal/mol
- unfolding enthalpy (van 't Hoff) [23]: 110 kcal/mol
- Tm [24]: 60.9 °C
- heat capacity change of unfolding [24]: 1 kcal/mol/K
- unfolding enthalpy (calorimetric) [24]: 99.1 kcal/mol
- Tm [25]: 64 °C
- heat capacity change of unfolding [25]: 1.24 kcal/mol/K
- unfolding enthalpy (calorimetric) [25]: 116 kcal/mol
- Tm [26]: 60.7 °C
- unfolding enthalpy (calorimetric) [26]: 107 kcal/mol
- unfolding free energy (pH 6, 25 °C, Thermal, CD, MES 10 mM, KCL 0.1 M): 9.3 kcal/mol
- Tm [27]: 51.9 °C
- unfolding enthalpy (van 't Hoff) [27]: 97.5 kcal/mol
- Tm (pH 6, Thermal, Absorbance, Sodium acetate 30 mM, NaCl 0.10 M, reversible: yes): 61.6 °C
- Tm [28]: 59.6 °C
- unfolding enthalpy (van 't Hoff) [28]: 112 kcal/mol
- Tm [29]: 63.7 °C
- heat capacity change of unfolding [29]: 1.3 kcal/mol/K
- unfolding enthalpy (calorimetric) [29]: 114 kcal/mol
- Tm (pH 6, Thermal, DSC, citrate 20 mM, NaCl 55 mM, reversible: yes): 65 °C
- Tm (pH 6, Thermal, DSC, phosphate, reversible: yes(>90%)): 63.2 °C
- denaturant m value [30]: 1.49 kcal/mol/M
- denaturant midpoint (higher = more stable) [30]: 7.16 M
- unfolding free energy (pH 6.45, 26 °C, GdnHCl, CD, Sodium phosphate 10 mM, KCl 0.1 M, reversible: yes): 14.4 kcal/mol
- Tm [31]: 63.8 °C
- unfolding enthalpy (calorimetric) [31]: 114 kcal/mol
- unfolding free energy (pH 7, 0 °C, Urea, Fluorescence, MOPS 30 mM, NaCl 0.1 M, reversible: yes): 1.31 kcal/mol
- unfolding free energy (pH 7, 2 °C, Urea, Fluorescence, MOPS 30 mM, NaCl 0.1 M, reversible: yes): 1.2 kcal/mol
- unfolding free energy (pH 7, 5 °C, Urea, Fluorescence, MOPS 30 mM, NaCl 0.1 M, reversible: yes): 0.85 kcal/mol
- denaturant m value [32]: 2.3 kcal/mol/M
- denaturant midpoint (higher = more stable) [32]: 2.6 M
- denaturant m value [33]: 1.9 kcal/mol/M and 1.8 kcal/mol/M
- denaturant midpoint (higher = more stable) [33]: 2.6 M and 2.3 M
- denaturant m value [34]: 1.9 kcal/mol/M
- denaturant midpoint (higher = more stable) [34]: 2.5 M
- unfolding free energy (pH 7, 25 °C, Urea, Fluorescence, MOPS 30 mM, reversible: yes): 5.5 kcal/mol
- unfolding enthalpy (van 't Hoff) [35]: 115 kcal/mol and 112 kcal/mol and 104 kcal/mol
- unfolding free energy [35]: 8.8 kcal/mol and 8 kcal/mol
- Tm [36]: 61.7 °C
- unfolding enthalpy (van 't Hoff) [36]: 112 kcal/mol
- Tm [37]: 52.5 °C
- unfolding enthalpy (van 't Hoff) [37]: 97.7 kcal/mol
- Tm [38]: 53.3 °C
- heat capacity change of unfolding [38]: 1.6 kcal/mol/K
- unfolding enthalpy (calorimetric) [38]: 84.7 kcal/mol
- Tm (pH 7, Thermal, DSC, Potassium phosphate 0.1 M): 44.4 °C
- Tm [39]: 65.6 °C
- unfolding enthalpy (calorimetric) [39]: 110 kcal/mol
- Tm [40]: 12.4 °C
- heat capacity change of unfolding [40]: 1.59 kcal/mol/K
- unfolding enthalpy (van 't Hoff) [40]: 39.9 kcal/mol
- Tm [41]: 48.3 °C
- unfolding enthalpy (van 't Hoff) [41]: 96 kcal/mol
- denaturant m value [42]: 1.45 kcal/mol/M
- denaturant midpoint (higher = more stable) [42]: 7.59 M
- unfolding free energy [42]: 10.9 kcal/mol and 3.97 kcal/mol
- Tm [43]: 62.8 °C
- unfolding enthalpy (van 't Hoff) [43]: 66 kcal/mol
- Tm [44]: 61.4 °C
- unfolding enthalpy (van 't Hoff) [44]: 122 kcal/mol
- Tm (pH 7.4, Thermal, CD, PBS): 61.1 °C
- unfolding enthalpy (van 't Hoff) (pH 7.4, Thermal, CD, PBS): 105 kcal/mol
- unfolding free energy (pH 8, 15 °C, Urea, CD, Tris-HCl 0.1 M, NaCl 2.5 M): 2.61 kcal/mol
- denaturant m value [45]: 1.99 kcal/mol/M
- denaturant midpoint (higher = more stable) [45]: 3.1 M
- Tm (pH 8, Thermal, CD, Sodium phosphate 50 mM, NaCl 25 mM, reversible: Yes): 65.6 °C
- denaturant midpoint (higher = more stable) (pH 8.4, 23 °C, GdnHCl, Fluorescence, Tris-HCl 0.1 M): 2.25 M
- denaturant midpoint (higher = more stable) (pH 8.4, 23 °C, GdnSCN, Fluorescence, Tris-HCl 0.1 M): 0.75 M
